The values that follow are results of earlier work, collected in PMC5540906.

Values joined by “and” are separate entries in the source; they are usually repeats but may differ in a detail not shown here. Equal entries are not always repeated.

Series [1] has as its target ClpP tetradecamer (Escherichia coli) (UniProt P0A6G7). Description: activity measurements.
Series [2] deals with DnaK (Thermus thermophilus) (UniProt Q72IK5).
UniProt Q72IK5, sequence (Q72IK5 whole entry): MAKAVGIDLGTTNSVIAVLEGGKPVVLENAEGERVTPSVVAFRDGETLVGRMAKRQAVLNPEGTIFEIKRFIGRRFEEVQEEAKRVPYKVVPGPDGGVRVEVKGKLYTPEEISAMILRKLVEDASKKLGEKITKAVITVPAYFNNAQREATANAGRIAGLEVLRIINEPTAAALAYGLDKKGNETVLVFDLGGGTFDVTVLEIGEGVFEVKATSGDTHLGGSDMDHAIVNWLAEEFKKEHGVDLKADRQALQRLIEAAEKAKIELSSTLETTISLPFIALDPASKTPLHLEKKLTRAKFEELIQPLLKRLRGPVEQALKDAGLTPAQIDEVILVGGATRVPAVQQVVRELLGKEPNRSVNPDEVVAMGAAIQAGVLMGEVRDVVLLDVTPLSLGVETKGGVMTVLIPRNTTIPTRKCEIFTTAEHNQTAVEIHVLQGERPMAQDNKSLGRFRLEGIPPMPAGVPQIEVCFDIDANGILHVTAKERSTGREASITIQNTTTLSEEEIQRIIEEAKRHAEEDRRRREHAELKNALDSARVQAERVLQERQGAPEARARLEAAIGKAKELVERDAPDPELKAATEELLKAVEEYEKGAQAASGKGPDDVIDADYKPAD

UniProt P0A6G7, sequence (P0A6G7 15-207): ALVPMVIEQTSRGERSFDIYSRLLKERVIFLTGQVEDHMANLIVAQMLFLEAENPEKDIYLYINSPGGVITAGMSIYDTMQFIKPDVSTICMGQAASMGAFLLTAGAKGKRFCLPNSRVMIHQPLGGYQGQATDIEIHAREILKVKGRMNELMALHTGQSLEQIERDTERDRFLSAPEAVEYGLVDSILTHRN

The Kd is the free concentration of one partner at which half of the binding sites on the other are occupied at equilibrium, for simple one-to-one binding. For ClpA hexamer (from UniProt P0ABH9), the Kd in series [1] is 0.004 µM.
For ClpB (from UniProt Q72IK9), in series [2], the Kd was 17 µM and 25 µM.
